Test results as given in patent US9259432B1, “Composition and methods for targeted delivery of a therapeutic compound to the brain or spinal cord of a subject for treatment of neurodegenerative diseases” (Parminder J. S. Vig, priority 2011, dated 2016).

Columns and labels:
Type in all cases: cell-based
[1] = system: differentiated GFP-ATXN1[82Q] SHSY5Y cells; assay: Oxyblot of S100B induced oxidized proteins; details: 5 μM S100B 2 hrs; compared to GFP-ATXN1[30Q] cells
Protocol: FIG. 16: (a) GFP-ATXN1[82Q] and (b) GFP-ATXN1[30Q] SHSY5Y stable cells were placed on 12-well plates and subjected to treatment with 25 nM TPA for 3 days to produce differentiated SHSY5Y cell lines. Next, the cells were pretreated with 50 μM Synb1-ELP-TRTK for 1 hr then treated with 5 μM S100B for 2 hrs or treated with 150 μM H2O2 for 2 hrs, where control cells were treated with serum free media for 3 hrs. Then the cells were lysed and analyzed with the Oxyblot kit and a β-tubulin antibody. Shown is the resulting oxyblot/western blot data. (c) Optical densities of the protein bands were taken using ImageJ software. Graphs shown the ratio of oxidized protein/β-tubulin protein normalized to the control. Statistics were taken using the student's t-test. * GFP-ATXN1[82Q]: S100B vs Synb1-ELP-TRTK+S100B, P<0.05. ψ GFP-ATXN1[82Q]: H2O2 vs GFP-ATXN1[30Q]: H2O2, P<0.05.
GFP-ATXN1[82Q] or GFP-ATXN1[30Q] stable cells were placed on 12-well plates at a concentration of 60,000 cells per well. Cells were treated with 25 nM TPA for 3 days to produce differentiated SHSY5Y cell lines. […] Cell lysates were analyzed with the Oxyblot kit according to manufacturer's protocol ([…]) and with a β-tubulin antibody (Sigma), where 5 μgs of protein was loaded in each well of 4-20% acrylamide gel (Bio-Rad Laboratories, Hercules, Calif., USA). […]

[2] = system: differentiated GFP-ATXN1[82Q] SHSY5Y cells; assay: Neurite changes after S100B treatment, mutant ataxin-1 cells; details: 3.0 μM S100B 48 hrs, vs untreated
Protocol: FIG. 15: GFP-ATXN1[82Q] SHSY5Y stable cells were placed on 2-well slides and subjected to treatment with 25 nM TPA for 3 days to produce differentiated SHSY5Y cells. Next, slides were fixed and probed with (a &b) GFP, (a) Synaptophycin and (b) RAGE antibodies and fluorescent secondary antibodies Alexa 488 and Alexa 546 followed by DAPI staining. Scale Bars: […]. Differentiated SHSY5Y cells were treated with 3.0 μM S100B for 48 hrs and neurite changes were visualized under the microscope. (c) Data is shown as MEAN±STDEV of the percentage of cells with neurites, n=100. (d) Data is shown as MEAN±SE of neurite length, n=100. Statistics were taken using student's t-test. *P<0.05.
SHSY5Y cells (Invitrogen, Carlsbad, Calif., USA) were maintained in DMEM/F12 media (Fisher, Houston, Tex., USA) supplemented with 15% FBS, penicillin-streptomycin (Sigma), and grown in an incubator at 37° C. in the presence of 5% CO2. S100B was labeled with Alexa 488 labeling kit (Invitrogen) to produce 488-S100B. […] Next, cells were washed then treated with 1 μM 488-S100B for 3 hrs and S100B uptake was analyzed by Epi-fluorescence or by Beckman Cytometric FC 500 flow cytometer as previously described (Bidwell et al., 2009). For flow cytometry experiments, 488-S100B uptake was measured by quenching extracellular fluorescence by coating the cells with Trypan Blue (Fisher) as described previously (Bidwell et al., 2009). […]

[3] = system: differentiated GFP-ATXN1[30Q] SHSY5Y cells; assay: Neurite changes after S100B treatment, normal ataxin-1 cells; details: 3.0 μM S100B 48 hrs, vs untreated

B1: S100B: glial secreted EF-hand calcium binding protein, purchased from Sigma-Aldrich; applied to cells as neurotoxic stimulus (protein, UniProt P04271 2-92, looked up)
Protein S100-B: SELEKAMVALIDVFHQYSGREGDKHKLKKSELKELINNELSHFLEEIKEQEVVDKVMETLDNDGDGECDFQEFMAFVAMVTTACHEFFEHE
level of oxidized proteins after S100B treatment [1]: greater level of oxidized proteins
neurite length [2]: significantly reduced
percentage of cells with neurites [2]: significant reduction
effect on neurites (percentage of cells with neurites, neurite length) [3]: no significant effect
